The results in this text go back to article PMC3680461, “Diversity of Plant Methionine Sulfoxide Reductases B and Evolution of a Form Specific for Free Methionine Sulfoxide” (PLoS ONE, 2013).

Where a chain is given by its changes, count along the chain named.

Series [1] has as its target T1, GmMSRB4 (Glycine max, UniProt I1ME37).
T1 construct: gene LOC100784622; without predicted N-terminal chloroplast signal peptide (predicted TP length 67), pET21b His-tag, E. coli BL21(DE3), purified
T1 sequence (I1ME37 68-204): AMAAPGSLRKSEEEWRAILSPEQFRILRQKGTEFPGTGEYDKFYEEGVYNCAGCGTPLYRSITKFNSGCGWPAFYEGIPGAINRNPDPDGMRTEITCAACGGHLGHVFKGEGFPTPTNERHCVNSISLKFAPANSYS
Put plainly: NADPH consumption, TRX-coupled. The series is classed as biochemical. As to conditions: 25 µM yeast TRX2, 2 µM TRX reductase, 200 µM NADPH; S/R mixture used, Km given as half of measured value; read-out: Free L-MetO / Km (μM)^c. From the text:
(§1) NADPH consumption, TRX-coupled on GmMSRB4

Series [2] concerns the target T2, GmMSRB2 (Glycine max, UniProt C6SXW1).
T2 construct: full-length, pDEST17 His-tag, E. coli BL21(DE3), purified; cytosolic (no signal peptide predicted)
T2 sequence (C6SXW1 1-138): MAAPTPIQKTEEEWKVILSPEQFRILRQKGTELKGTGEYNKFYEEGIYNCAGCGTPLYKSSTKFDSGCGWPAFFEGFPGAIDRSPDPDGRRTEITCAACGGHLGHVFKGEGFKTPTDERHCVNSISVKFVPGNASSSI
Put plainly: NADPH consumption, TRX-coupled. The series is classed as biochemical. As to conditions: 25 µM yeast TRX2, 2 µM TRX reductase, 200 µM NADPH; S/R mixture used, Km given as half of measured value; read-out: Free L-MetO / Km (μM)^c. From the text: (§2) NADPH consumption, TRX-coupled on GmMSRB2

For series [3], the target named is T3, GmMSRB1 (Glycine max, UniProt C6TFD8).
T3 construct: without predicted N-terminal chloroplast signal peptide (predicted TP length 45), pET21b His-tag, E. coli BL21(DE3), purified
T3 sequence (C6TFD8 46-202): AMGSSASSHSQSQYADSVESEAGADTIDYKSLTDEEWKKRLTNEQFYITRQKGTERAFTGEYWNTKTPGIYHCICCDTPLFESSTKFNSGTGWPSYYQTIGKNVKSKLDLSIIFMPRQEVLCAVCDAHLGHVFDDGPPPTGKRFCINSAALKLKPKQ
Put plainly: DTT-dependent MSR activity. The series is classed as biochemical. To be noted: DTT as reductant.

Series [4] concerns the target T4, GmMSRB2 (Glycine max, UniProt C6SXW1, C68S).
T4 construct: full-length, pDEST17 His-tag, E. coli BL21(DE3), purified; cytosolic (no signal peptide predicted)
T4 sequence (C6SXW1 1-138 C68S): T2 sequence (C6SXW1 1-138) with C68S
Put plainly: DTT-dependent MSR activity. The class given is biochemical. To be noted: DTT as reductant.

Substrate in series [5]: CC(=O)N[C@@H](CC[S+](C)[O-])C(=O)O
Put plainly: NADPH consumption, TRX-coupled. As to conditions: 25 µM yeast TRX2, 2 µM TRX reductase, 200 µM NADPH. The series is classed as biochemical, Glycine max.
Description: as §1

Substrate in series [6]: CC(=O)N[C@@H](CC[S+](C)[O-])C(=O)O
Put plainly: NADPH consumption, TRX-coupled. The class given is biochemical, Glycine max. To be noted: 25 µM yeast TRX2, 2 µM TRX reductase, 200 µM NADPH.
Description: as §2
The source holds these as a separate data set.

In the case of Free L-MetO, the Km is 1450 µM in series [1] and 2090 µM in series [2].

On to `CN(C)c1ccc(/N=N/c2ccc(S(=O)(=O)N[C@@H](CC[S@@+](C)[O-])C(=O)O)cc2)cc1` [dabsyl-MetO], for which the “DTT-dependent MSR activity” value in series [3] is “GmMSRB1 was two-fold more efficient than GmMSRB2 or GmMSRB4 in reducing dabsylated Met-R-O”; in series [4], “the C68S GmMSRB2 mutant was active towards both protein-based and free MetO”.

B1: GmMSRB4 (Glycine max) (protein)
chain: T1 sequence (I1ME37 68-204)
notes: without predicted N-terminal chloroplast signal peptide (predicted TP length 67), pET21b His-tag, E. coli BL21(DE3), purified
Consider B1, for which, in series [5], the Km is 49 ± 6 µM, the kcat amounted to 0.24 ± 0.01 s⁻¹ and the kcat/Km turned out to be 5000 M⁻¹ s⁻¹.

B2: GmMSRB2 (Glycine max) (protein)
chain: T2 sequence (C6SXW1 1-138)
notes: full-length, pDEST17 His-tag, E. coli BL21(DE3), purified; cytosolic (no signal peptide predicted)
For the molecule B2, in series [6], the Km came out at 49 ± 5 µM, the catalytic constant (kcat) was 2.04 ± 0.06 s⁻¹ and the kcat/Km was determined as 42000 M⁻¹ s⁻¹.

For orientation: kcat means the maximal rate divided by the concentration of active sites. What is called kcat/Km is the turnover number divided by the Michaelis constant.
